For assay [1], the target named is T1, TauC3 (C-terminally truncated tau fragment ending at aspartate 421 of htau40) (human, UniProt P10636 1-738).
T1 construct: Generated and purified by Genscript; also called Human TauC3; recombinant TauC3 protein
Description: binding ELISA on coated TauC3, OD650. Summed up:
(§1)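 Binding was measured by ELISA, with absorbance read at 650 nm, on coated TauC3 antigen that Genscript made and purified. ExpiCHO cells were used to express the chimeric or humanized IgG4κ antibodies. EC50 was obtained from the antibody concentration-response.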

Assay [2] addresses T1, TauC3 (C-terminally truncated tau …). Kind of assay: binding ELISA on coated TauC3, OD650; left table (HC variants). In outline: as §1
(In general: An ELISA detects its analyte on a solid surface through an enzyme-linked reagent.)

Assay [3] has the same target. Kind of assay: binding ELISA on coated TauC3, OD650. In outline:
as §1
This is another data set of the same source.

For assay [4] the target is unchanged. Kind of assay: Biacore off-rate ranking, TauC3 amine-coupled on CM5, one antibody concentration; one-phase exponential decay fit. How it is done:
(§2) To further evaluate the binding data observed on the Octet, an off-rate ranking experiment was performed on the Biacore 200 instrument. Biacore offers greater selectivity than the Octet and facilitated the immobilization of TauC3 onto a CM5 chip via amine coupling which stabilizes the antigen. This produces higher quality data with stable baselines and good reproducible responses. Once TauC3 is immobilized, one concentration (5 nM) of antibody is added, followed by a dissociation and regeneration step (Section 8.20). The off-rates were fitted using a two-phase decay model (FIG. 25B) or a one phase decay fitting only the second off-rate (FIG. 25A). The candidates were then ranked based on the off-rates obtained using the fits and compared. The data agreed with the Octet results (albeit with a different ranking order), highlighting Tau01 HMKM, HMKO, HMKP, HMKN and HMKE as the humanized variants with the slowest off-rates. The lack of binding of FL Tau to chimeric and a humanized candidate was also confirmed by Biacore by loading the antibody onto a Protein G chip and adding 250 nM FL Tau.
A general note: In SPR one partner is held on a chip, and binding of the other changes the refractive index at the surface.

For assay [5] the target is unchanged. Description: Biacore off-rate ranking, TauC3 amine-coupled on CM5, one antibody concentration; two-phase decay fit, slow phase. Further details: unit not given here. The method, then: as §2
Assay [6] has the same target. Kind of assay: binding ELISA on coated TauC3, OD650; right table (HM variants). In outline: as §1
Assay [7] has the same target. Kind of assay: binding ELISA on coated TauC3, OD650. In outline: as §1
This is another data set of the same source.

Assay [8] has the same target. Description: binding ELISA on coated TauC3, OD650. In outline: as §1
This is another data set of the same source.

Assay [9] shares this target. Kind of assay: SPR (Biacore) kinetics, TauC3 amine-coupled on CM5, 1:1 global fit. In outline: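 Association rate, dissociation rate and Kd were derived by global fitting of surface plasmon resonance (Biacore) data. The fit used a 1:1 model, with a concentration series of each purified antibody flowed over purified antigen amine-coupled to a CM5 chip.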
For assay [10] the target is unchanged. Kind of assay: Biacore kinetics, TauC3 amine-coupled on CM5, antibody series, 1:1 global fit. From the text: To determine the affinity of the binding interactions, a biacore kinetic assay was developed which involved immobilizing TauC3 on a CM5 chip via amine coupling and injecting a concentration series of the respective antibody over it.

Positions count from the first letter of the chain named. Several values for one entry are separate records, joined by “and”; a condition that tells them apart may be missing. Identical values can stand only once.

Here are results for 28 molecules from patent publication US20220064272A1 (TAUC3 BIOLOGICS, published 2022).

T1 sequence (P10636 other isoform, or with tags, fused parts or gaps): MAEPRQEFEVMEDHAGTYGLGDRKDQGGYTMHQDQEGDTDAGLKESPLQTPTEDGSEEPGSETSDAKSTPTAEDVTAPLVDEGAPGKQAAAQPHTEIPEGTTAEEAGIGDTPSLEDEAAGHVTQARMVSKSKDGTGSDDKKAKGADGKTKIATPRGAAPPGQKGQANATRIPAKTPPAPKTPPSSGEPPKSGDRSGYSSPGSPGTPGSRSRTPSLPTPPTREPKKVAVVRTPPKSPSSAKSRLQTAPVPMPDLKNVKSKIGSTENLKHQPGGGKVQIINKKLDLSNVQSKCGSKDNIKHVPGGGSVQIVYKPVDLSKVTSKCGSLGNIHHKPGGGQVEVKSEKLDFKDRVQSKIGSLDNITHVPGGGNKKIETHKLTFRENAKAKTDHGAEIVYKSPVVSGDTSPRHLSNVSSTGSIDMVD

B1: Tau01 HCKI (antibody, V domains shown)
VH: LVQLVESGGGLVQPGGSLKLSCAASGFTFNTYAMNWVRQASGKGLEWVGRIRSKSNNYATYYAASVKGRFTISRDDSKSMAYLQMDSLKTEDTAVYYCVGGGDFWGQGTLVTVSS
VL: DIQMTQSPSSLSASVGDRVTITCRASQEISVYLGWYQQKPGKAPKRLIYGAFKLQSGVPSRFSGSRSGTEYTLTISSLQPEDFATYYCLQYVRYPWTFGGGTKVEIK
notes: human IgG4 kappa (HuG4K)
With B1, the EC50 in assay [1] came to 0.741 nM; in assay [2], 0.655 nM.

B2: Tau01 HBKG (antibody, V domains shown)
VH: B1 VH with L1E, L4V, G49A, A64D, A81V
VL: B1 VL with K53T, Y71F
notes: human IgG4 kappa (HuG4K)
The molecule B2 returned an EC50 in assay [3] of 0.761 nM.

B3: HBKD (antibody, V domains shown)
VH: B1 VH with L1E, L4V, G49A, A64D, A81V
VL: B1 VL with G34S, Y71F
notes: humanized variant, HB with KD; also called Tau01 HBKD HuG4K
On to B3, for which, in [3], the EC50 amounted to 3.04 nM.

B4: HBKH (antibody, V domains shown)
VH: B1 VH with L1E, L4V, G49A, A64D, A81V
VL: B1 VL with T69S, Y71F
notes: humanized variant, HB with KH; also called Tau01 HBKH HuG4K
In assay [3], B4 had an EC50 of 0.807 nM.

B5: Tau01 HMKJ (antibody, V domains shown)
VH: B1 VH with G49A
VL: B1 VL with K53S, Y71F
notes: human IgG4 kappa (HuG4K)
On to B5, for which the koff in [4] turned out to be 0.00136 s⁻¹. Also, in assay [5], the Kslow came out at 0.00123. Further, the EC50 in assay [6] is 0.433 nM; in [7], 0.522 nM.

B6: Tau01 HCKL (antibody, V domains shown)
VH: B1 VH
VL: B1 VL with G34S, Y36F, P44I
notes: human IgG4 kappa (HuG4K)
B6: in assay [2], the EC50 is 0.835 nM.

B7: Tau01 HMKG (antibody, V domains shown)
VH: B1 VH with G49A
VL: B1 VL with K53T, Y71F
notes: human IgG4 kappa (HuG4K)
In [4], B7 returned a koff of 0.000453 s⁻¹. The Kslow in assay [5] is 0.000384. For the same molecule, the EC50 in assay [6] is 0.515 nM and 0.607 nM; in [7], 0.543 nM.

B8: Tau01 HCKJ (antibody, V domains shown)
VH: B1 VH
VL: B1 VL with K53S, Y71F
notes: human IgG4 kappa (HuG4K)
B8: the EC50 was found to be 1.01 nM in [1] and 0.766 nM in [2].

B9: Tau01 HCKO (antibody, V domains shown)
VH: B1 VH
VL: B1 VL with K53S
notes: human IgG4 kappa (HuG4K)
In assay [2], B9 had an EC50 of 0.537 nM.

B10: HCKF (antibody, V domains shown)
VH: B1 VH
VL: B1 VL with P44I, Y71F
notes: humanized variant, HC with KF; also called Tau01 HCKF HuG4K
In the case of B10, in [1], the EC50 came to 2.25 nM.

B11: Tau01 HMKI (antibody, V domains shown)
VH: B1 VH with G49A
VL: B1 VL
notes: human IgG4 kappa (HuG4K)
B11 returned a koff in [4] of 0.00181 s⁻¹. Also, the Kslow in assay [5] was determined as 0.00179. Also, the EC50 in assay [6] was 0.474 nM and 0.458 nM; in [7], 0.549 nM.

B12: Tau01 HBKE (antibody, V domains shown)
VH: B1 VH with L1E, L4V, G49A, A64D, A81V
VL: B1 VL with Y36F, Y71F
notes: human IgG4 kappa (HuG4K)
In the case of B12, the EC50 in assay [3] was 0.915 nM.

B13: Tau01 HNKA (antibody, V domains shown)
VH: B1 VH with L4V
VL: B1 VL with Y71F
notes: human IgG4 kappa (HuG4K)
B13 yielded an EC50 in [8] of 1.09 nM.

B14: Tau01 HCKE (antibody, V domains shown)
VH: B1 VH
VL: B1 VL with Y36F, Y71F
notes: human IgG4 kappa (HuG4K)
Consider B14, for which the EC50 is 1.24 nM in assay [1] and 0.941 nM in [2].

B15: Tau01 HCKG (antibody, V domains shown)
VH: B1 VH
VL: B1 VL with K53T, Y71F
notes: human IgG4 kappa (HuG4K)
For the molecule B15, the EC50 in [6] worked out at 0.573 nM; in assay [1], 0.98 nM; in [2] it was 0.573 nM.

B16: Tau01 HCKP (antibody, V domains shown)
VH: B1 VH
VL: B1 VL with Y36F
notes: human IgG4 kappa (HuG4K)
B16 gave an EC50 in assay [2] of 0.821 nM.

B17: Tau01 HNKB (antibody, V domains shown)
VH: B1 VH with L4V
VL: B1 VL with G34S, Y36F, P44I, K53T, T69S
notes: human IgG4 kappa (HuG4K)
With B17, in [8], the midpoint of the response, the EC50, lay at 0.59 nM.

B18: Tau01 HMKL (antibody, V domains shown)
VH: B1 VH with G49A
VL: B1 VL with G34S, Y36F, P44I
notes: human IgG4 kappa (HuG4K)
In assay [6], B18 registered an EC50 of 0.47 nM.

B19: Tau01 HMKB (antibody, V domains shown)
VH: B1 VH with G49A
VL: B1 VL with G34S, Y36F, P44I, K53T, T69S
notes: human IgG4 kappa (HuG4K)
With B19, the koff in assay [4] was found to be 0.00062 s⁻¹. Further, the Kslow in [5] was found to be 0.000138. In addition, a half-maximal effect in assay [7] (EC50) was put at 0.412 nM.

B20: HBKF (antibody, V domains shown)
VH: B1 VH with L1E, L4V, G49A, A64D, A81V
VL: B1 VL with P44I, Y71F
notes: humanized variant, HB with KF; also called Tau01 HBKF HuG4K
Turning to B20, in assay [3], it took 0.786 nM to reach a half-maximal effect (EC50).

B21: HCKH (antibody, V domains shown)
VH: B1 VH
VL: B1 VL with T69S, Y71F
notes: humanized variant, HC with KH; also called Tau01 HCKH HuG4K
Consider B21, for which the EC50 in [1] was found to be 1.03 nM.

B22: Tau01 HCKN (antibody, V domains shown)
VH: B1 VH
VL: B1 VL with K53T
notes: human IgG4 kappa (HuG4K)
As for B22, the EC50 in [2] is 0.574 nM.

B23: Tau01 HMKC (antibody, V domains shown)
VH: B1 VH with G49A
VL: B1 VL with G34S, Y36F
notes: human IgG4 kappa (HuG4K)
The molecule B23 came in with a koff in [4] of 0.000843 s⁻¹. This molecule registered a Kslow in assay [5] of 0.000711. For the same molecule, in [6], the EC50 was 0.433 nM and 0.718 nM.

B24: Tau01 HMKM HuG4k (antibody, V domains shown)
VH: B1 VH with G49A
VL: B1 VL with G34S, Y36F, P44I, K53S
notes: human IgG4 kappa (HuG4K)
For B24, the results for the koff in assay [4], in assay [9] and in assay [10] were 0.000264 s⁻¹, 0.0181 s⁻¹ and 0.0181 s⁻¹, respectively. In addition, the Kslow in assay [5] was found to be 0.000553. Moreover, in assay [9], binding was put at a Kd of 0.11 nM. The kon in [9] was 1.65e+08 M⁻¹ s⁻¹.

B25: Tau01 HBKI (antibody, V domains shown)
VH: B1 VH with L1E, L4V, G49A, A64D, A81V
VL: B1 VL
notes: human IgG4 kappa (HuG4K)
With B25, in assay [3], a half-maximal response (EC50) required 0.705 nM.

B26: Tau01 HBKJ (antibody, V domains shown)
VH: B1 VH with L1E, L4V, G49A, A64D, A81V
VL: B1 VL with K53S, Y71F
notes: human IgG4 kappa (HuG4K)
In the case of B26, in [3], the midpoint of the response, the EC50, lay at 0.811 nM.

B27: HCKD (antibody, V domains shown)
VH: B1 VH
VL: B1 VL with G34S, Y71F
notes: humanized variant, HC with KD; also called Tau01 HCKD HuG4K
B27 displayed an EC50 in [1] of 2.02 nM.

B28: Tau01 HMKA (antibody, V domains shown)
VH: B1 VH with G49A
VL: B1 VL with Y71F
notes: human IgG4 kappa (HuG4K)
B28 came in with a koff in assay [4] of 0.000882 s⁻¹. This molecule returned a Kslow in [5] of 0.000815. In addition, the EC50 is 0.641 nM and 0.462 nM in assay [6]; 0.556 nM in assay [7].

For orientation: EC50 means the concentration giving half of the maximal effect. As usually defined, the koff is the rate constant with which the complex falls apart. By Kd is commonly meant the free concentration of one partner at which half of the binding sites on the other are occupied at equilibrium, for simple one-to-one binding. By kon is commonly meant the rate constant with which the complex forms.
